The source of these data is patent US20250084176A1 (F STAR BETA, published 2025).

Numbering of substitutions follows the chain as printed.

B1: FS22-053-008/HelD1.3 (bispecific antibody, human IgG1, kappa)
heavy: QVQLQESGPGLVRPSQTLSLTCTVSGSTFSGYGVNWVRQPPGRGLEWIGMIWGDGNTDYNSALKSRVTMLVDTSKNQFSLRLSSVTAADTAVYYCARERDYRLDYWGQGSLVTVSSASTKGPSVFPLAPSSKSTSGGTAALGCLVKDYFPEPVTVSWNSGALTSGVHTFPAVLQSSGLYSLSSVVTVPSSSLGTQTYICNVNHKPSNTKVDKKVEPKSCDKTHTCPPCPAPELLGGPSVFLFPPKPKDTLMISRTPEVTCVVVDVSHEDPEVKFNWYVDGVEVHNAKTKPREEQYNSTYRVVSVLTVLHQDWLNGKEYKCKVSNKALPAPIEKTISKAKGQPREPQVYTLPPSRDELNPPYLFSNQVSLTCLVKGFYPSDIAVEWESNGQPENNYKTTPPVLDSDGSFFLYSKLTVDYWRWLEGNVFSCSVMHEALHNHYTQKSLSLSPG
light: DIQMTQSPASLSASVGETVTITCRASGNIHNYLAWYQQKQGKSPQLLVYNAKTLADGVPSRFSGSGSGTQYSLKINSLQPEDFGSYYCQHFWSTPRTFGGGTKLEIKRTVAAPSVFIFPPSDEQLKSGTASVVCLLNNFYPREAKVQWKVDNALQSGNSQESVTEQDSKDSTYSLSSTLTLSKADYEKHKVYACEVTHQGLSSPVTKSFNRGEC
notes: Mock mAb^2, IgG1 without LALA; also called FS22-053-008/HeID1.3
B2: FS22-172-002/HelD1.3 (bispecific antibody, human IgG1, kappa)
heavy: B1 heavy with N358P, P359F, P360Q, Y361M, L362P, F363P, S364Y, D417G, Y418A, W419D
light: B1 light
B3: FS22-172-006/HelD1.3 (bispecific antibody, human IgG1, kappa)
heavy: B1 heavy with N358R, P359K, P360Y, L362P, F363P, S364Y, V367L, D417G, Y418A, W419D
light: B1 light
B4: FS22-053-009/HelD1.3 (bispecific antibody, human IgG1, kappa)
heavy: B1 heavy with D417E, Y418H, W419T, E423D
light: B1 light
notes: Mock mAb^2, IgG1 without LALA; also called FS22-053-009/HeID1.3
B5: FS22-053-012/HelD1.3 (bispecific antibody, human IgG1, kappa)
heavy: B1 heavy with Y418H, W419M
light: B1 light
notes: Mock mAb^2, IgG1 without LALA; also called FS22-053-012/HeID1.3
B6: FS22-053-011/HelD1.3 (bispecific antibody, human IgG1, kappa)
heavy: B1 heavy with L422T, E423D
light: B1 light
notes: Mock mAb^2, IgG1 without LALA; also called FS22-053-011/HeID1.3
B7: FS22-053-010/HelD1.3 (bispecific antibody, human IgG1, kappa)
heavy: B1 heavy with W419M, E423D
light: B1 light
notes: Mock mAb^2, IgG1 without LALA; also called FS22-053-010/HeID1.3
B8: FS22-172-004, yeast-displayed clone (designed binder)
chain: GQPREPQVYTLPPSRDELNYIYPPYNQVSLTCLVKGFYPSDIAVEWESNGQPENNYKTTPPVLDSDGSFFLYSKLTVGADRWLEGNVFSCSVMHEALHNHYTQKSLSLSPG
B9: FS22-172-005, yeast-displayed clone (designed binder)
chain: B8 chain with N19Q, Y20Q, I21V
B10: FS22-172-006, yeast-displayed clone (designed binder)
chain: B8 chain with N19R, Y20K, I21Y, V28L
B11: FS22-172-003, yeast-displayed clone (designed binder)
chain: B8 chain with N19P, Y22I
B12: FS22-172-001, yeast-displayed clone (designed binder)
chain: B8 chain with N19P, Y20F, I21V, Y22M
B13: FS22-053-009, yeast-displayed clone (designed binder)
chain: B8 chain with Y20P, I21P, P23L, P24F, Y25S, G78E, A79H, D80T, E84D
B14: FS22-053-008, yeast-displayed clone (designed binder)
chain: B8 chain with Y20P, I21P, P23L, P24F, Y25S, G78D, A79Y, D80W
B15: FS22-053-010, yeast-displayed clone (designed binder)
chain: B8 chain with Y20P, I21P, P23L, P24F, Y25S, G78D, A79Y, D80M, E84D
B16: FS22-053-011, yeast-displayed clone (designed binder)
chain: B8 chain with Y20P, I21P, P23L, P24F, Y25S, G78D, A79Y, D80W, L83T, E84D
B17: FS22-053-012, yeast-displayed clone (designed binder)
chain: B8 chain with Y20P, I21P, P23L, P24F, Y25S, G78D, A79H, D80M
B18: FS22-172-002, yeast-displayed clone (designed binder)
chain: B8 chain with N19P, Y20F, I21Q, Y22M

T3 sequence (Q07011 24-186): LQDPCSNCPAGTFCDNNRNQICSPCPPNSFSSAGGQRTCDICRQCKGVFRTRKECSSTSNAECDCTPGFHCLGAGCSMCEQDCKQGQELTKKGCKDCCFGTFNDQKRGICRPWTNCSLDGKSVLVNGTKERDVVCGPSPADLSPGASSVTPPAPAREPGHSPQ
Sequence of human CD40 (P25942 21-193 limits assumed): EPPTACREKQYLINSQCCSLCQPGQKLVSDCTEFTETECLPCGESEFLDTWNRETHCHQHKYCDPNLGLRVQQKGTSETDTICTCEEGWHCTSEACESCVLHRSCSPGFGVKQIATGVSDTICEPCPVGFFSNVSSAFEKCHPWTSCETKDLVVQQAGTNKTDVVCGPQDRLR
Sequence of human CD137, full length, on cells (Q07011 24-255): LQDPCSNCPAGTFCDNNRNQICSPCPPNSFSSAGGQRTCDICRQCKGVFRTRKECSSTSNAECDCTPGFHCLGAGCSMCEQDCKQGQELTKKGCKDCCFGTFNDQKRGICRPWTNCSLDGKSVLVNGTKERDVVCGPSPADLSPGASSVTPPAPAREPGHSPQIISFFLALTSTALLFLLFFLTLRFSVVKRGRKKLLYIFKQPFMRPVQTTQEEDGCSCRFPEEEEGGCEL

The first assay has as its target human CD137, full length, on cells (human, UniProt Q07011 24-255). As to the kind of experiment: cell-based or functional assay.
For the molecule B1, the “NF-kB signalling, HEK.FRT.luc.hCD137, +XL (EC50 nM)” value (shortened to “NF-kB signalling”) is 26.3 nM.
Still for that read-out and setting: to B2 belongs 124 nM.
For the molecule B3, the “NF-kB signalling” value was 382 nM.
As for B4, the “NF-kB signalling” value came to 64.6 nM.
For B5, the “NF-kB signalling” value stood at 119 nM.
Same read-out and setting: next, B6: 32.8 nM; B7: 47.5 nM.

The next assay addresses human CD40 (human, UniProt P25942 21-193). As to the kind of experiment: SPR (Biacore T200), receptor amine-coupled to CM5 chip. As for the experimental part:
(§1) The specificity of the anti-human CD137 Fcabs for human CD137 compared to other related TNFSFR family members was tested. 8 of the Fcabs were tested in mock mAb² (HeID1.3) format and measured by SPR in a Biacore T200 (GE Healthcare) by testing for binding to other human TNFRSF receptors: CD40, OX40 and GITR. Amine coupling (amine coupling kit, GE Healthcare, BR-1000-50) was used to coat human CD40, GITR and OX40 to approximately 1000 RU in Biacore CM5 chips (GE Healthcare, cat no 29149603). […] The chip was regenerated by injection of 10 mM glycine pH 2.5 for 12 s at 30 μl/min. Antibodies specific to the different TNFRSF members were used as positive controls to verify Biacore chip coating. Data was double reference subtracted and analysed using BIAevaluation 3.2 software.
In the case of B1, the binding result is listed as “no binding (tested: starting at 1 µM)”.
As for B4, the binding result is “no binding (tested: starting at 1 µM)”.
Consider B5, for which the binding result is recorded as “no binding (tested: starting at 1 µM)”.
As to B6, the binding result is listed as “no binding (tested: starting at 1 µM)”.
Same read-out and setting: next, B7: “no binding (tested: starting at 1 µM)”.

In the next assay the target is T1, human OX40 (human, UniProt P43489 29-216, limits assumed).
T1 sequence (looked up): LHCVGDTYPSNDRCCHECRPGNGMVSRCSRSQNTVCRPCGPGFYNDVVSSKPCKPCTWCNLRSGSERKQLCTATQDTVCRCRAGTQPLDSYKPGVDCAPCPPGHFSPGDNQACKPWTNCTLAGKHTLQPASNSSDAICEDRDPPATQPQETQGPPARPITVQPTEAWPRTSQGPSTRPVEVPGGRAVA
The description is as above. As for the experimental part:
as §1
On to B1, for which the binding result is listed as “no binding (tested: starting at 1 µM)”.
For B4, the binding result is listed as “no binding (tested: starting at 1 µM)”.
Still for that read-out and setting: to B5 belongs “no binding (tested: starting at 1 µM)”; to B6, “no binding (tested: starting at 1 µM)”; to B7, “no binding (tested: starting at 1 µM)”.

Another assay concerns the target T2, human GITR (human, UniProt Q9Y5U5 26-161, limits assumed).
T2 sequence (looked up): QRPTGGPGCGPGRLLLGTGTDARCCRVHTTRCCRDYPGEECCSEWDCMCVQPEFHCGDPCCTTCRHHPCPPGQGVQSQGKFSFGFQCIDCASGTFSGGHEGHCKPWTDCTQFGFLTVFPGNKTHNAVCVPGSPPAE
The assay is described as above. On the procedure: as §1
Take B1: the binding result is reported as “no binding (tested: starting at 1 µM)”.
The same measure, in the same setting: next, B4: “no binding (tested: starting at 1 µM)”.
Same read-out and setting: to B5 belongs “no binding (tested: starting at 1 µM)”; to B6, “no binding (tested: starting at 1 µM)”.
Same read-out and setting: to B7 belongs “no binding (tested: starting at 1 µM)”.

Another assay concerns the target T3, hCD137-mFc-Avi (human; mouse, UniProt Q07011 24-186, one biotin on the Avi sequence of each monomer (BirA); unbiotinylated in the SPR of Example 5.6).
T3 construct: Made in-house in HEK293-6E; also called human CD137-mFc-Avi; dimeric human CD137; not shown: mouse IgG2a Fc domain (mIgG2a Fc)
In words: flow cytometry of the yeast-displayed clone, 10 nM dimeric human antigen. A general note: Flow cytometry measures light scatter and fluorescence of single cells or particles in a stream.
On to B8, for which the “% APC positive cells” value is greater than 10%.
The same measure, in the same setting: to B9 belongs greater than 10%; to B10, greater than 10%; to B11, greater than 10%.
Same read-out and setting: next, B12: greater than 10%; B13: greater than 30%.
On the same count and under the same terms, next, B14: greater than 30%; B15: greater than 30%.
On to B16, for which the “% APC positive cells” value is greater than 30%.
Still for that read-out and setting: to B17 belongs greater than 30%; to B18, greater than 10%.

In a further assay the target is T3, hCD137-mFc-Avi. As to the kind of experiment: SPR (Biacore), mAb2 captured by anti-human Fab, antigen in solution, 1:1 Langmuir. On the procedure: (§2) An anti-human Fab capture antibody was immobilised on all four flow cells of a CM5 series S chip (GE Healthcare #BR-1005-30) to an average surface density of 6000 RU following the manufacturer's recommendations (GE Healthcare, human Fab capture Kit, #28958325). IEach mAb² was captured to approximately 150 RU by injecting a 3 μg/ml solution of mAb² diluted in HBS-EP+ buffer (GE Healthcare #BR1006-69) for 60 seconds at 30 μl/min. Then different concentrations of human, cyno or mouse CD137 antigen (unbiotinylated human, cyno or mouse CD137-mFc-Avi or human CD137-Avi-His) in HBS-EP+ buffer were flowed over the chip for 3 min at 60 μl/min and then allowed to dissociate for 10 minutes. After each antigen concentration the chip was regenerated by infecting 10 mM glycine pH 2.1 at a flow rate of 30 μl/min for 30 seconds. Buffer HBS-EP+ was injected before the highest concentration of antigen and after the lowest concentration of antigen for reference subtraction, and one of the concentrations at random was repeated twice. The binding kinetics were fit with a 1:1 Langmuir model to generate equilibrium binding constants (KD) for each sample. Data analysis was performed with BiaEvaluation software version 3.2.
(In SPR one partner is held on a chip, and binding of the other changes the refractive index at the surface.)
Molecule B1 displayed a Kd of 4.2 nM.
The molecule B6 had a Kd of 5.5 nM.

For a further assay, the target named is T4, hCD137-Avi-His (human, UniProt Q07011 24-186, single biotin on the Avi sequence (BirA); unbiotinylated in the SPR of Example 5.6).
T4 construct: also called human CD137-Avi-His; monomeric human CD137
T4 sequence (Q07011 24-186): as the sequence (Q07011 24-186) above
Described as above. On the procedure:
as §2
Consider B1, for which the “Human monomeric CD137 KD fold difference relative to human dimeric KD” value is 170 fold.
On the same count and under the same terms, to B6 belongs greater than 200 fold.

The target of another assay is T5, cCD137-mFc-Avi (cynomolgus; mouse, one biotin on the Avi sequence of each monomer (BirA); unbiotinylated in the SPR of Example 5.6).
T5 construct: also called cyno CD137-mFc-Avi; dimeric cynomolgus CD137; not shown: mouse IgG2a Fc domain (mIgG2a Fc)
T5 chain: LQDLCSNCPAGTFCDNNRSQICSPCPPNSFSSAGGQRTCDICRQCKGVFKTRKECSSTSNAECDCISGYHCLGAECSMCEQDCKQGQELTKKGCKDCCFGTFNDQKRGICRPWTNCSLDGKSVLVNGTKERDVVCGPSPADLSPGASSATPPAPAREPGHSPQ
The assay is described as above. As for the experimental part:
as §2
B1 yielded a Kd of 0.9 nM.
The same measure, in the same setting: to B6 belongs 1.3 nM.

The Kd is a measure of binding affinity in units of concentration.
